This note sets out measurements from US20210388081A1 (Memorial Sloan Kettering, published 2021).

The labels stand for the following.
B1: ET200-107 (scFv)
scFv: QSVVTQPPSVSAAPGEKVTISCSGSNFNVGNNDVSWYQQLPGAAPKLLIYDNNKRPSGIPDRFSGSKSGTSATLDITGLHSDDEADYYCGTWDSSLNTGGVFGTGTKVTVLGSRGGGGSGGGGSGGGGSLEMAEVQLVQSGAEVKKPGASVKVSCKASGYTFTSYTISWVRQAPGQGLEWMGWISTYNGLTNYAQNLQGRVTMTTDTFTTTAYMELRSLRSDDTAVYYCVREGSPDYGDFASFDYWGQGTLVTVSSTSGQAGQHHHHHHGAYPYDVPDYAS
notes: screened as phage clone; entry is VL-linker-VH-His tag-HA tag
B2: ET200-108 (scFv)
scFv: QSVLTQPPSVSAPPGQKVTISCSGSSSNIGNNYVSWYQQFPGTAPKLLIYDNNKRPSGISDRFSGSKSGTSATLGIAGLQTGDEADYYCGTWDTSLSGFYVFGSGTKVTVLGSRGGGGSGGGGSGGGGSLEMAEVQLVQSGAEVKKPGASVKVSCKASGYTFTSYTISWVRQAPGQGLEWMGWISTYNGLTNYAQNLQGRVTMTTDTFTTTAYMELRSLRSDDTAVYYCVREGSPDYGDFASFDYWGQGTLVTVSSTSGQAGQHHHHHHGAYPYDVPDYAS
notes: as for B1
B3: ET200-103 (scFv)
scFv: QAVLTQPHSVSESPGKTVTISCTRSSGSIASNYVQWYQQRPGSAPTTVIYEDNQRPSGVPDRFSGSIDSSSNSASLTISGLKTEDEADYYCQSYDSTITVFGGGTKLTVLGSRGGGGSGGGGSGGGGSLEMAQVQLVQSGAEVKKPGSSVKVSCKASGGTFSSYAISWVRQAPGQGLEWMGGIIPIFGTANYAQKFQGRVTITADESTSTAYMELSSLRSEDTAVYYCAGEGYYDSSGYSNGDAFDIWGQGTMVTVSSTSGQAGQHHHHHHGAYPYDVPDYAS
notes: as for B1
B4: ET200-109 (scFv)
scFv: LPVLTQPPSASATPGQRVTISCSGTTSNIGSNTVHWYQQLPGTAPKLLIYNNNQRPSGVPDRFSGSKSGTSASLAISGLRSEDEATYSCATWDDSLSGVVFGGGTKLTVLGSRGGGGSGGGGSGGGGSLEMAEVQLVQSGAEVKKPGSSVKVSCKASGGTFSSYAISWVRQAPGQGLEWMGGIIPIFGTANYAQKFQGRVTITADESTSTAYMELSSLRSEDTAVYYCARDPAYGDYEYDAFDIWGQGTMVTVSSTSGQAGQHHHHHHGAYPYDVPDYAS
notes: as for B1
B5: ET200-007 (scFv)
scFv: SYVLTQPLSVSVAPGKTARITCGGNNIGSKTVHWYQQKPGQAPVLVIYYDSDRPSGIPERFSGSNSGNTATLTISRVEAGDEADYYCQVWDSSSDHRVFGGGTKLTVLGSRGGGGSGGGGSGGGGSLEMAQVQLQESGPGLVKPSETLSLTCNVSGYSISSGYFWGWIRQPPGKGLEWIGSIYHSRSTYYNPSLKSRVTISVDTSKNQFSLKLNSVTAADTAVYYCARGYGYFDYWGQGTLVTVSSTSGQAGQHHHHHHGAYPYDVPDYAS
notes: as for B1
B6: ET200-105 (scFv)
scFv: SYVLTQPPSVSVSPGQTASITCSGDRLTNKYVSWYQQKPGQSPVLVIYEDAKRPSGIPARFSGSNSGNTATLTISGTQAMDESEYYCQAWDSSVVVFGGGTKLTVLGSRGGGGSGGGGSGGGGSLEMAEVQLVESGGGLVQPGRSLRLSCAASGFTFDDYAMHWVRQAPGKGLEWVSGISWNSGSIGYADSVKGRFTISRDNAKNSLYLQMNSLRDEDTALYYCAKDRGGGVIVKDAFDIWGQGTMVTVSSTSGQAGQHHHHHHGAYPYDVPDYAS
notes: as for B1
B7: ET200-102 (scFv)
scFv: QSVVTQPPSVSAAPGQKVTISCSGSSSNIGNNYVSWYQQLPGTAPKLLIYDNNKRPSGIPDRFSGSKSGTSATLGITGLQTGDEADYYCGTWDSSLSAYVFGTGTKVTVLGSRGGGGSGGGGSGGGGSLEMAQVQLVQSGAEVKKPGASVKVSCKASGYTFTNYALHWVRQAPGQGLEWMAWINGGNGNTKYSQNFQGRVTITRDTSASTAYMELSSLRSEDTAVYYCAKPEETAGTIHFDYWGQGTPVTVSSTSGQAGQHHHHHHGAYPYDVPDYAS
notes: as for B1
B8: ET200-106 (scFv)
scFv: SYELTQPPAASGTPGQRVTISCSGGVSNIGSGALNWYQQLPGTAPKLLIYSYNQRPSGVSDRFSGSRSATSASLAISGLQSEDEADYYCATWDDSVNGWVFGGGTKLTVLGSRGGGGSGGGGSGGGGSLEMAEVQLVESGAEVKKPGDSVKVSCKPSGYNFLNYGINWVRQAPGQGLEWMGWISTYTGNTNYAQKLQGRVTFTTDTSTSTAYMEMRSLRSDDTAVYYCARQQGGGWYDVWGQGTLVTVSSTSGQAGQHHHHHHGAYPYDVPDYAS
notes: as for B1

SLAMF9 protein, sequence (Q96A28 19-236 limits assumed): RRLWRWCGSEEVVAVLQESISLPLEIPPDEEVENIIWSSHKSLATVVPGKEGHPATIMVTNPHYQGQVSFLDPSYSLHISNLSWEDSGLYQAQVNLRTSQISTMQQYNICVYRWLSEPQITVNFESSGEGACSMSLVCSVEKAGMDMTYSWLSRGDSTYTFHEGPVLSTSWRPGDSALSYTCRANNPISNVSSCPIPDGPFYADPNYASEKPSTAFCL

The first experiment concerns the target SLAMF9 protein (UniProt Q96A28 19-236, limits assumed). Nature of the experiment: phage clone on SLAMF9 protein.
Consider B1, for which the binding result was “no binding”.

Turning to B2, the binding result is listed as “no binding”.

Take B3: the binding result is “no binding”.

On to B4, for which the binding result is given as “no binding”.

Take B5: the binding result was “no binding”.

In the case of B6, the binding result is listed as “no binding”.

Regarding B7, the binding result is on record as “no binding”.

For B8, the binding result was “no binding”.

In another experiment the target is T1, FcRL2, overexpressed on 3T3 cells (UniProt Q96LA5 20-508, limits assumed).
T1 construct: whole, on cells
T1 sequence (looked up): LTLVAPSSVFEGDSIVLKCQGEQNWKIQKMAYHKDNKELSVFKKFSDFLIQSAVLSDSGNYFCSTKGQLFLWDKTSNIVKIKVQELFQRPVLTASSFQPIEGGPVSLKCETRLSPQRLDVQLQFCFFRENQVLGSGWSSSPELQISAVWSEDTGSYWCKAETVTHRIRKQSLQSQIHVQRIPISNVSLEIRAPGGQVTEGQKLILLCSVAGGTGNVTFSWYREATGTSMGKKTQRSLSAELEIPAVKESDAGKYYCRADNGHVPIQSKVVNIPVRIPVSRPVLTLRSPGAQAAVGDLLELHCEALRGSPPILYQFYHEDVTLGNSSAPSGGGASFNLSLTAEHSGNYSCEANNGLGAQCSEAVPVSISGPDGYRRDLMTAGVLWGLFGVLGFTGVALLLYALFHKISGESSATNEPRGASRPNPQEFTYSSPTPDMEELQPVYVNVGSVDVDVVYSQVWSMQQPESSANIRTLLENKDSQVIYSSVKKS
Nature of the experiment: phage clone on 3T3-FcRL2 cells.
B1: the binding result was “no binding”.

Turning to B2, the binding result is on record as “no binding”.

Take B3: the binding result is “no binding”.

In the case of B4, the binding result is “no binding”.

Regarding B5, the binding result is listed as “no binding”.

For B6, the binding result is “no binding”.

In the case of B7, the binding result is listed as “no binding”.

On to B8, for which the binding result is recorded as “no binding”.

The target of another experiment is T2, FcRL3, overexpressed on 3T3 cells (UniProt Q96P31 18-734, limits assumed).
T2 construct: whole, on cells
T2 sequence (looked up): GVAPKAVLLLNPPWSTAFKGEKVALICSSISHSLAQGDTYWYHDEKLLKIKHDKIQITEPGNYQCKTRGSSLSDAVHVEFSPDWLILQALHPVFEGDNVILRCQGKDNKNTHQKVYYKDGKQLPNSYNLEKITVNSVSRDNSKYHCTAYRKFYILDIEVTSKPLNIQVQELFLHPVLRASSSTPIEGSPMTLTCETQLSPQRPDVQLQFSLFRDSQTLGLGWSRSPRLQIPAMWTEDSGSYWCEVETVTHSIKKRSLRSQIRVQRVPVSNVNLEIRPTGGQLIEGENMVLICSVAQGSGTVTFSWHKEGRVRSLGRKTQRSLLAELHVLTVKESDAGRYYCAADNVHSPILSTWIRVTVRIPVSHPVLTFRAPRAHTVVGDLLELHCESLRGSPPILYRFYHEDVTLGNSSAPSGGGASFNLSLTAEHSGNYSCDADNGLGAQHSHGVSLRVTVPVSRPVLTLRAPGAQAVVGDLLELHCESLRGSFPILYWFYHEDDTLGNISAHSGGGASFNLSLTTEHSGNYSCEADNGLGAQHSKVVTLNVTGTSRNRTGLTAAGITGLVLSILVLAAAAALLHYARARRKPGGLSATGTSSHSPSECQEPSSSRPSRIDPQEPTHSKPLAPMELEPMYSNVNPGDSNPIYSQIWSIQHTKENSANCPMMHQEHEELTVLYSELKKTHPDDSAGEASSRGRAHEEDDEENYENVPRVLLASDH
The experiment in a line: phage clone on 3T3-FcRL3 cells.
Consider B1, for which the binding result is listed as “no binding”.

Take B2: the binding result is on record as “no binding”.

Turning to B3, the binding result is given as “no binding”.

Turning to B4, the binding result is given as “no binding”.

Consider B5, for which the binding result is reported as “no binding”.

Regarding B6, the binding result is given as “no binding”.

For B7, the binding result is “no binding”.

Take B8: the binding result is given as “no binding”.

A further experiment addresses T3, FcRL4, overexpressed on 3T3 cells (UniProt Q96PJ5 20-515, limits assumed).
T3 construct: whole, on cells
T3 sequence (looked up): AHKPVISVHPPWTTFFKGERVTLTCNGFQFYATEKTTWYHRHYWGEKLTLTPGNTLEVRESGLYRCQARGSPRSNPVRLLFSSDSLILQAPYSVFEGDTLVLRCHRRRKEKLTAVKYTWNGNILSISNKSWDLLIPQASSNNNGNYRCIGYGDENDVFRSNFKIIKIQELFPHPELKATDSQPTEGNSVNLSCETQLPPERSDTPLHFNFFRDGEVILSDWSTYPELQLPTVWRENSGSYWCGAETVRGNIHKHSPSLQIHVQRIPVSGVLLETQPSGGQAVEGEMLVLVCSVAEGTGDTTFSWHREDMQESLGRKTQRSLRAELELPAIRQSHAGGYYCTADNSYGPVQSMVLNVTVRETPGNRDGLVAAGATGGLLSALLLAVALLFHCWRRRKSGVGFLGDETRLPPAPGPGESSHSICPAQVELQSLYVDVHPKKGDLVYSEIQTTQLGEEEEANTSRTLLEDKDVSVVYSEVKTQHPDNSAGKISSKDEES
Nature of the experiment: phage clone on 3T3-FcRL4 cells.
Regarding B1, the binding result was “no binding”.

On to B2, for which the binding result is given as “no binding”.

Turning to B3, the binding result was “no binding”.

B4: the binding result is listed as “no binding”.

For B5, the binding result is listed as “no binding”.

B6: the binding result is “no binding”.

As to B7, the binding result is reported as “no binding”.

As for B8, the binding result is reported as “no binding”.

A further experiment deals with T4, FcRL6, overexpressed on 3T3 cells (UniProt Q6DN72 20-434, limits assumed).
T4 construct: whole, on cells
T4 sequence (looked up): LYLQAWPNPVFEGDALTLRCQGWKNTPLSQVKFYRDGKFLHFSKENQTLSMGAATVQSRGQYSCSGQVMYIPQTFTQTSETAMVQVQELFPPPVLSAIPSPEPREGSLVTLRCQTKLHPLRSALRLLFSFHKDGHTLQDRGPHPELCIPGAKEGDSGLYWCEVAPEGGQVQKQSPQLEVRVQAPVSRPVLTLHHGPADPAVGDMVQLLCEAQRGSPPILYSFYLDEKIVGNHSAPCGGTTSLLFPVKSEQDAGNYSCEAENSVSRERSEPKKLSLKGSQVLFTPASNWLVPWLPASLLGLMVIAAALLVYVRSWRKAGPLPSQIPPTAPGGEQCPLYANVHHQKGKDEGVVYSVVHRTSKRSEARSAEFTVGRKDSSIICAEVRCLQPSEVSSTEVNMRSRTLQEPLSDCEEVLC
The experiment in a line: phage clone on 3T3-FcRL6 cells.
In the case of B1, the binding result was “no binding”.

Consider B2, for which the binding result is “no binding”.

Turning to B3, the binding result was “no binding”.

B4: the binding result is on record as “no binding”.

Take B5: the binding result was “no binding”.

As to B6, the binding result was “no binding”.

Regarding B7, the binding result is on record as “no binding”.

In the case of B8, the binding result was “no binding”.
